Data on one molecule can be found in patent CN103910796A.

In one experiment the target is 狂犬病毒(CVS株). The experiment can be described thus: cell-based or functional assay.
Experiment [1] concerns the target 狂犬疫苗 (rabies vaccine used as ELISA coating antigen). Put plainly: ELISA, rabies vaccine coated on plate, HRP goat anti-human IgG.
For experiment [2], the target named is 狂犬病毒G蛋白 (rabies virus G protein, RVG) (rabies virus (strain not stated)).

B1: 全人源的单克隆的抗狂犬病毒中和抗体TRN006 (antibody, V domains shown)
VH: QVQLQESGPGLVKPSETLSLTCTVSGGSISSTTSYWGWIRQPPGKGLEWIGSIYYSGSTYYNPSLKSRVTISVDTSKNQFSLKLRSVTAADTAVYFCARHSVTAAYFNYWGQGTLVSVSS
VL: DIQMTQSPSSVSASVGDRVTITCRASEGISSWLAWYQQKPGRAPKVLIHGASSLQSGVPSRFSGSGSGADFTLSISSLQPEDFATYYCQQANSFPYTFGQGTKLEIKR
B1 gave a 保护效价 (RFFIT, Reed & Muench法) with 狂犬病毒(CVS株) of 3040 IU/ml. In experiment [1], this molecule returned an antibody concentration at which binding is still seen of 0.0024 µg/mL and a dilution fold at which binding is still seen of 50000 fold. In experiment [2], the fold of MFI over negative control antibody was 300 fold and the fold of MFI over standard serum amounted to 17 fold.
